Values of other authors in PMC10532679.
pKd, pKi: −log10 of the molar value.

Tests used:
PKA-C (Homo sapiens) [1] = biological target: PKA-C (Homo sapiens) (UniProt P17612)
PKA-C (Homo sapiens) [2] = biological target: PKA-C (Homo sapiens) (UniProt P17612); remark: listed apart in the source

pKi (PKA-C (Homo sapiens) [1]): > 9.00
pKd (PKA-C (Homo sapiens) [2]): 10.00
Substance: PKA-RII (from UniProt P13861)
